{"source": "paper PMC8819291", "about": "“Adaptively evolved human oral actinomyces‐sourced defensins show therapeutic potential” (EMBO Molecular Medicine, 2021)", "key": {"[1]": {"test_system": "Streptococcus sanguinis ATCC 1.2497", "assay": "Inhibition-zone-based synergy assay", "format": "cell-based", "settings": "0.05 nmol/well, without AMSIN"}, "[2]": {"test_system": "Streptococcus salivarius ATCC 1.2498", "assay": "Inhibition-zone-based synergy assay", "format": "cell-based", "settings": "0.05 nmol/well, without AMSIN"}}, "data": [{"molecule": "hLZc: lysozyme C isolated from human saliva (protein) KVFERCELARTLKRLGMDGYRGISLANWMCLAKWESGYNTRATNYNAGDRSTDYGIFQINSRYWCNDGKTPGAVNACHLSCSALLQDNIADAVACAKRVVRDPQGIRAWVAWRNRCQNRDVRQYVQGCGV", "values": [{"measurement": "Inhibition zone of the factor alone", "setting": "[1]", "value": "no visible inhibition zones"}, {"measurement": "Inhibition zone of the factor alone", "setting": "[2]", "value": "no visible inhibition zones"}]}]}
